In publication PMC8809517, “Cofactor-independent RNA editing by a synthetic S-type PPR protein”:
Substitutions are numbered along the chain they refer to.

How the values were obtained:
Test in all cases: high-throughput RNA pulldown from lysate on Ni-NTA beads; HRP: 50 mM Tris pH 8, 150 mM NaCl, 1 mM beta-mercaptoethanol, 50 ug/ml BSA, 3 ug/ml yeast RNA, 0.5% heparin; ITC and FP: Tris pH 8, 200 mM KCl, 5% glycerol; MST: 50 mM Tris pH 8, 200 mM NaCl, 1 mM DTT, BSA, heparin, 0.05% Tween 20
Details in all cases: tags: N-terminal His-eGFP
[1] = target: T1, GFP-9S library array, motif 4 ND N98H;D124Q (synthetic construct, N98H;D124Q)
T1 chain: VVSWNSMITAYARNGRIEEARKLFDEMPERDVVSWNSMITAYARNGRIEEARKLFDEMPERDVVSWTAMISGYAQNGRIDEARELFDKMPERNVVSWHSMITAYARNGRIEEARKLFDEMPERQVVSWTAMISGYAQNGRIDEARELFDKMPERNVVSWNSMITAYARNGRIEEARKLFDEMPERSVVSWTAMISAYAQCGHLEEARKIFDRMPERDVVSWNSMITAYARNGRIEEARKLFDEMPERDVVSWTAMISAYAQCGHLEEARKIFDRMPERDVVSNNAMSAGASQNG

[2] = target: T2, GFP-9S library array, motif 4 ND N98D;D124Q (synthetic construct, N98D;D124Q)
T2 chain: T1 chain with H98D

[3] = target: T3, GFP-9S library array, motif 4 ND N98W;D124Q (synthetic construct, N98W;D124Q)
T3 chain: T1 chain with H98W

[4] = target: T4, GFP-9S library array, motif 4 ND N98D;D124Y (synthetic construct, N98D;D124Y)
T4 chain: T1 chain with H98D, Q124Y

[5] = target: T5, GFP-9S library array, motif 4 ND N98R;D124W (synthetic construct, N98R;D124W)
T5 chain: T1 chain with H98R, Q124W

B1: Cy5-rpoA (ssRNA)
RNA: AUUACACGUGA
Question: What does the source list for B1?
Answer: Kd ([1]; label: 5' Cy5): 68.7 nM; Kd ([2]; label: 5' Cy5): 369 nM; Kd ([3]; label: 5' Cy5): 101 nM; Kd ([4]; label: 5' Cy5): 153 nM; Kd ([5]; label: 5' Cy5): 147 nM

B2: IR-rpoA-U (ssRNA)
RNA: AUUAUACGUGA
Question: How did the Kd ([1]; label: 5' IRDye 800CW) turn out when B2 was run?
Answer: 31.4 nM

Question: What about the Kd ([2]; label: 5' IRDye 800CW) of the same binder?
Answer: 803 nM

Question: What about the Kd ([3]; label: 5' IRDye 800CW) of the same binder?
Answer: 195 nM

Question: And the Kd ([4]; label: 5' IRDye 800CW)?
Answer: 266 nM

Question: What about the Kd ([5]; label: 5' IRDye 800CW) of the same binder?
Answer: 337 nM

B3: IR-rpoA-A (ssRNA)
RNA: AUUAAACGUGA
Question: With B3 as the binder, how does the Kd ([1]; label: 5' IRDye 800CW) read?
Answer: 82.6 nM

Question: What about the Kd ([2]; label: 5' IRDye 800CW) of the same binder?
Answer: 973 nM

Question: What about the Kd ([3]; label: 5' IRDye 800CW) of the same binder?
Answer: 224 nM

Question: And the Kd ([4]; label: 5' IRDye 800CW)?
Answer: 1180 nM

Question: And the Kd ([5]; label: 5' IRDye 800CW)?
Answer: 249 nM

B4: Cy5-rpoA-G (ssRNA)
RNA: AUUAGACGUGA
Question: How did the Kd ([1]; label: 5' Cy5) turn out when B4 was run?
Answer: 60.8 nM

Question: What about the Kd ([2]; label: 5' Cy5) of the same binder?
Answer: 270 nM

Question: And the Kd ([3]; label: 5' Cy5)?
Answer: 94.4 nM

Question: What about the Kd ([4]; label: 5' Cy5) of the same binder?
Answer: 246 nM

Question: What about the Kd ([5]; label: 5' Cy5) of the same binder?
Answer: 88.7 nM
